# In patent US12099068B2, “Biomarkers for graft-versus-host disease” (Incyte Corporation, priority 2018, dated 2024):
# B1: PDGF subunit B (protein, UniProt P01127 82-190, looked up)
# Platelet-derived growth …: SLGSLTIAEPAMIAECKTRTEVFEISRRLIDRTNANFLVWPPCVEVQRCSGCCNNRNVQCRPTQVQLRPVQVRKIEIVRKKPIFKKATVTLEDHLACKCETVAAARPVT
# B2: ICAM1 (protein, UniProt P05362 28-532, looked up)
# Intercellular adhesion …: QTSVSPSKVILPRGGSVLVTCSTSCDQPKLLGIETPLPKKELLLPGNNRKVYELSNVQEDSQPMCYSNCPDGQSTAKTFLTVYWTPERVELAPLPSWQPVGKNLTLRCQVEGGAPRANLTVVLLRGEKELKREPAVGEPAEVTTTVLVRRDHHGANFSCRTELDLRPQGLELFENTSAPYQLQTFVLPATPPQLVSPRVLEVDTQGTVVCSLDGLFPVSEAQVHLALGDQRLNPTVTYGNDSFSAKASVSVTAEDEGTQRLTCAVILGNQSQETLQTVTIYSFPAPNVILTKPEVSEGTEVTVKCEAHPRAKVTLNGVPAQPLGPRAQLLLKATPEDNGRSFSCSATLEVAGQLIHKNQTRELRVLYGPRLDERDCPGNWTWPENSQQTPMCQAWGNPLPELKCLKDGTFPLPIGESVTVTRDLEGTYLCRARSTQGEVTRKVTVNVLSPRYEIVIITVVAAAVIMGTAGLSTYLYNRQRKIKKYRLQQAQKGTPMKPNTQATPP
# B3: APBB1IP (protein, UniProt Q7Z5R6 1-666, looked up)
# Amyloid beta A4 precursor …: MGESSEDIDQMFSTLLGEMDLLTQSLGVDTLPPPDPNPPRAEFNYSVGFKDLNESLNALEDQDLDALMADLVADISEAEQRTIQAQKESLQNQHHSASLQASIFSGAASLGYGTNVAATGISQYEDDLPPPPADPVLDLPLPPPPPEPLSQEEEEAQAKADKIKLALEKLKEAKVKKLVVKVHMNDNSTKSLMVDERQLARDVLDNLFEKTHCDCNVDWCLYEIYPELQIERFFEDHENVVEVLSDWTRDTENKILFLEKEEKYAVFKNPQNFYLDNRGKKESKETNEKMNAKNKESLLEESFCGTSIIVPELEGALYLKEDGKKSWKRRYFLLRASGIYYVPKGKTKTSRDLACFIQFENVNIYYGTQHKMKYKAPTDYCFVLKHPQIQKESQYIKYLCCDDTRTLNQWVMGIRIAKYGKTLYDNYQRAVAKAGLASRWTNLGTVNAAAPAQPSTGPKTGTTQPNGQIPQATHSVSAVLQEAQRHAETSKDKKPALGNHHDPAVPRAPHAPKSSLPPPPPVRRSSDTSGSPATPLKAKGTGGGGLPAPPDDFLPPPPPPPPLDDPELPPPPPDFMEPPPDFVPPPPPSYAGIAGSELPPPPPPPPAPAPAPVPDSARPPPAVAKRPPVPPKRQENPGHPGGAGGGEQDFMSDLMKALQKKRGNVS
# B4: LYN (protein, UniProt P07948 2-512, looked up)
# Tyrosine-protein kinase Lyn: GCIKSKGKDSLSDDGVDLKTQPVRNTERTIYVRDPTSNKQQRPVPESQLLPGQRFQTKDPEEQGDIVVALYPYDGIHPDDLSFKKGEKMKVLEEHGEWWKAKSLLTKKEGFIPSNYVAKLNTLETEEWFFKDITRKDAERQLLAPGNSAGAFLIRESETLKGSFSLSVRDFDPVHGDVIKHYKIRSLDNGGYYISPRITFPCISDMIKHYQKQADGLCRRLEKACISPKPQKPWDKDAWEIPRESIKLVKRLGAGQFGEVWMGYYNNSTKVAVKTLKPGTMSVQAFLEEANLMKTLQHDKLVRLYAVVTREEPIYIITEYMAKGSLLDFLKSDEGGKVLLPKLIDFSAQIAEGMAYIERKNYIHRDLRAANVLVSESLMCKIADFGLARVIEDNEYTAREGAKFPIKWTAPEAINFGCFTIKSDVWSFGILLYEIVTYGKIPYPGRTNADVMTALSQGYRMPRVENCPDELYDIMKMCWKEKAEERPTFDYLQSVLDDFYTATEGQYQQQP
# B5: CLM-1 (protein, UniProt Q8TDQ1 20-290, looked up)
# CMRF35-like molecule 1: TQITGPTTVNGLERGSLTVQCVYRSGWETYLKWWCRGAIWRDCKILVKTSGSEQEVKRDRVSIKDNQKNRTFTVTMEDLMKTDADTYWCGIEKTGNDLGVTVQVTIDPAPVTQEETSSSPTLTGHHLDNRHKLLKLSVLLPLIFTILLLLLVAASLLAWRMMKYQQKAAGMSPEQVLQPLEGDLCYADLTLQLAGTSPQKATTKLSSAQVDQVEVEYVTMASLPKEDISYASLTLGAEDQEPTYCNMGHLSSHLPGRGPEEPTEYSTISRP
# B6: ARHGAP1 (protein, UniProt Q07960 1-439, looked up)
# Rho GTPase-activating protein …: MDPLSELQDDLTLDDTSEALNQLKLASIDEKNWPSDEMPDFPKSDDSKSSSPELVTHLKWDDPYYDIARHQIVEVAGDDKYGRKIIVFSACRMPPSHQLDHSKLLGYLKHTLDQYVESDYTLLYLHHGLTSDNKPSLSWLRDAYREFDRKYKKNIKALYIVHPTMFIKTLLILFKPLISFKFGQKIFYVNYLSELSEHVKLEQLGIPRQVLKYDDFLKSTQKSPATAPKPMPPRPPLPNQQFGVSLQHLQEKNPEQEPIPIVLRETVAYLQAHALTTEGIFRRSANTQVVREVQQKYNMGLPVDFDQYNELHLPAVILKTFLRELPEPLLTFDLYPHVVGFLNIDESQRVPATLQVLQTLPEENYQVLRFLTAFLVQISAHSDQNKMTNTNLAVVFGPNLLWAKDAAITLKAINPINTFTKFLLDHQGELFPSPDPSGL
# B7: EPHB4 (protein, UniProt P54760 16-987, looked up)
# Ephrin type-B receptor 4: LEETLLNTKLETADLKWVTFPQVDGQWEELSGLDEEQHSVRTYEVCDVQRAPGQAHWLRTGWVPRRGAVHVYATLRFTMLECLSLPRAGRSCKETFTVFYYESDADTATALTPAWMENPYIKVDTVAAEHLTRKRPGAEATGKVNVKTLRLGPLSKAGFYLAFQDQGACMALLSLHLFYKKCAQLTVNLTRFPETVPRELVVPVAGSCVVDAVPAPGPSPSLYCREDGQWAEQPVTGCSCAPGFEAAEGNTKCRACAQGTFKPLSGEGSCQPCPANSHSNTIGSAVCQCRVGYFRARTDPRGAPCTTPPSAPRSVVSRLNGSSLHLEWSAPLESGGREDLTYALRCRECRPGGSCAPCGGDLTFDPGPRDLVEPWVVVRGLRPDFTYTFEVTALNGVSSLATGPVPFEPVNVTTDREVPPAVSDIRVTRSSPSSLSLAWAVPRAPSGAVLDYEVKYHEKGAEGPSSVRFLKTSENRAELRGLKRGASYLVQVRARSEAGYGPFGQEHHSQTQLDESEGWREQLALIAGTAVVGVVLVLVVIVVAVLCLRKQSNGREAEYSDKHGQYLIGHGTKVYIDPFTYEDPNEAVREFAKEIDVSYVKIEEVIGAGEFGEVCRGRLKAPGKKESCVAIKTLKGGYTERQRREFLSEASIMGQFEHPNIIRLEGVVTNSMPVMILTEFMENGALDSFLRLNDGQFTVIQLVGMLRGIASGMRYLAEMSYVHRDLAARNILVNSNLVCKVSDFGLSRFLEENSSDPTYTSSLGGKIPIRWTAPEAIAFRKFTSASDAWSYGIVMWEVMSFGERPYWDMSNQDVINAIEQDYRLPPPPDCPTSLHQLMLDCWQKDRNARPRFPQVVSALDKMIRNPASLKIVARENGGASHPLLDQRQPHYSAFGSVGEWLRAIKMGRYEESFAAAGFGSFELVSQISAEDLLRIGVTLAGHQKKILASVQHMKSQAKPGTPGGTGGPAPQY
# B8: hK14 (protein, UniProt Q9P0G3 41-267, looked up)
# Kallikrein-14: IIGGHTCTRSSQPWQAALLAGPRRRFLCGGALLSGQWVITAAHCGRPILQVALGKHNLRRWEATQQVLRVVRQVTHPNYNSRTHDNDLMLLQLQQPARIGRAVRPIEVTQACASPGTSCRVSGWGTISSPIARYPASLQCVNINISPDEVCQKAYPRTITPGMVCAGVPQGGKDSCQGDSGGPLVCRGQLQGLVSWGMERCALPGYPGVYTNLCKYRSWIEETMRDK
# B9: CCL17 (protein, UniProt Q92583 24-94, looked up)
# C-C motif chemokine 17: ARGTNVGRECCLEYFKGAIPLRKLKTWYQTSEDCSRDAIVFVTVQGRAICSDPNNKRVKNAVKYLQSLERS
# B10: DAB2 (protein, UniProt P98082 2-770, looked up)
# Disabled homolog 2: SNEVETSATNGQPDQQAAPKAPSKKEKKKGPEKTDEYLLARFKGDGVKYKAKLIGIDDVPDARGDKMSQDSMMKLKGMAAAGRSQGQHKQRIWVNISLSGIKIIDEKTGVIEHEHPVNKISFIARDVTDNRAFGYVCGGEGQHQFFAIKTGQQAEPLVVDLKDLFQVIYNVKKKEEEKKKIEEASKAVENGSEALMILDDQTNKLKSGVDQMDLFGDMSTPPDLNSPTESKDILLVDLNSEIDTNQNSLRENPFLTNGITSCSLPRPTPQASFLPENAFSANLNFFPTPNPDPFRDDPFTQPDQSTPSSFDSLKSPDQKKENSSSSSTPLSNGPLNGDVDYFGQQFDQISNRTGKQEAQAGPWPFSSSQTQPAVRTQNGVSEREQNGFSVKSSPNPFVGSPPKGLSIQNGVKQDLESSVQSSPHDSIAIIPPPQSTKPGRGRRTAKSSANDLLASDIFAPPVSEPSGQASPTGQPTALQPNPLDLFKTSAPAPVGPLVGLGGVTVTLPQAGPWNTASLVFNQSPSMAPGAMMGGQPSGFSQPVIFGTSPAVSGWNQPSPFAASTPPPVPVVWGPSASVAPNAWSTTSPLGNPFQSNIFPAPAVSTQPPSMHSSLLVTPPQPPPRAGPPKDISSDAFTALDPLGDKEIKDVKEMFKDFQLRQPPAVPARKGEQTSSGTLSAFASYFNSKVGIPQENADHDDFDANQLLNKINEPPKPAPRQVSLPVTKSTDNAFENPFFKDSFGSSQASVASSQPVSSEMYRDPFGNPFA
# B11: SCARF1 (protein, UniProt Q14162 20-830, looked up)
# Scavenger receptor class F …: SELDPKGQHVCVASSPSAELQCCAGWRQKDQECTIPICEGPDACQKDEVCVKPGLCRCKPGFFGAHCSSRCPGQYWGPDCRESCPCHPHGQCEPATGACQCQADRWGARCEFPCACGPHGRCDPATGVCHCEPGWWSSTCRRPCQCNTAAARCEQATGACVCKPGWWGRRCSFRCNCHGSPCEQDSGRCACRPGWWGPECQQQCECVRGRCSAASGECTCPPGFRGARCELPCPAGSHGVQCAHSCGRCKHNEPCSPDTGSCESCEPGWNGTQCQQPCLPGTFGESCEQQCPHCRHGEACEPDTGHCQRCDPGWLGPRCEDPCPTGTFGEDCGSTCPTCVQGSCDTVTGDCVCSAGYWGPSCNASCPAGFHGNNCSVPCECPEGLCHPVSGSCQPGSGSRDTALIAGSLVPLLLLFLGLACCACCCWAPRSDLKDRPARDGATVSRMKLQVWGTLTSLGSTLPCRSLSSHKLPWVTVSHHDPEVPFNHSFIEPPSAGWATDDSFSSDPESGEADEVPAYCVPPQEGMVPVAQAGSSEASLAAGAFPPPEDASTPFAIPRTSSLARAKRPSVSFAEGTKFAPQSRRSSGELSSPLRKPKRLSRGAQSGPEGREAEESTGPEEAEAPESFPAAASPGDSATGHRRPPLGGRTVAEHVEAIEGSVQESSGPVTTIYMLAGKPRGSEGPVRSVFRHFGSFQKGQAEAKVKRAIPKPPRQALNRKKGSPGLASGSVGQSPNSAPKAGLPGATGPMAVRPEEAVRGLGAGTESSRRAQEPVSGCGSPEQDPQKQAEEERQEEPEYENVVPISRPPEP
# System: plasma proteins
# Assay: Plasma proteins modulated between baseline and day 28 in responders (CR, VGPR, PR; n = 19), Example 6 (Table 13)
# Format: in vivo, human
# Settings: plasma protein (OLINK NPX); responders (CR, VGPR, PR; n = 19); itacitinib 200 mg or 300 mg QD with corticosteroids; day 28 vs baseline
# How it was run: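 Longitudinal comparison, day 28 versus baseline, with steroid-naive (N=10) and steroid-refractory (N=18) patients combined. Proteins measured by OLINK proximity extension, log2 normalized protein expression. Differences tested by t tests, ANOVA, Pearson correlation, P<0.05 significant.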
Molecule,"Fold Change, Decreased Expression from Baseline to Day 28","Fold Change, Increased Expression from Baseline to Day 28"
B1,−1.9124,–
B2,−1.354,–
B3,−1.4021,–
B4,−1.2337,–
B5,−1.3921,–
B6,−1.6039,–
B7,−1.2339,–
B8,–,1.5574
B9,−3.059,–
B10,−1.2548,–
B11,−1.3509,–
